Here are results for six molecules from PMC12148503, “Molecular Basis of Interchain Disulfide Bond Formation in BMP-9 and BMP-10” (Journal of molecular biology, 2025).

T1: Pro-(X)-BMP-10 S385G, R353K, O95393
T1 chain: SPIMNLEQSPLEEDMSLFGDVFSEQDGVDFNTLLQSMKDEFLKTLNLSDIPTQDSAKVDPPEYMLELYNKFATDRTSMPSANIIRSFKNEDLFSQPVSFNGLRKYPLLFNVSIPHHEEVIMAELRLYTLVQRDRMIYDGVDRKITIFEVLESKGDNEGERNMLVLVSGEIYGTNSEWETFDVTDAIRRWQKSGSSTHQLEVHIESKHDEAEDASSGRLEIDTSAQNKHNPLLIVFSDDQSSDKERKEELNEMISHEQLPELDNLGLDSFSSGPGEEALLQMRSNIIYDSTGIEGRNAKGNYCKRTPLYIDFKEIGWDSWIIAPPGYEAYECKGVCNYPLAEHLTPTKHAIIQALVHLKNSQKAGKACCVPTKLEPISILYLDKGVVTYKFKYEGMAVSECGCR

T2: Pro-(X)-BMP-10 S385G, O95393
T2 chain: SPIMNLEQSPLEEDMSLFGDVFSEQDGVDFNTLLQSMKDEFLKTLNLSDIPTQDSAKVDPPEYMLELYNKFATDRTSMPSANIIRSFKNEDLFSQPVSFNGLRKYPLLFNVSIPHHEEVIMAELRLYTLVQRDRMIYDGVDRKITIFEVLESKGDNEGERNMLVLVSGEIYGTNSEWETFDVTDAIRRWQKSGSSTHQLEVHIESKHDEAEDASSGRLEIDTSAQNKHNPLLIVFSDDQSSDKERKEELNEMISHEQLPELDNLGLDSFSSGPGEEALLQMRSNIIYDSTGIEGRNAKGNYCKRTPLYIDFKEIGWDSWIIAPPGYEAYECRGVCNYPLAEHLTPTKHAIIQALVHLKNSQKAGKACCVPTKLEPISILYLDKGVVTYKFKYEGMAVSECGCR

B1: Pro-(X)-BMP-9 (natural protein, human, UniProt Q9UK05 23-429, looked up)
chain: KPLQSWGRGSAGGNAHSPLGVPGGGLPEHTFNLKMFLENVKVDFLRSLNLSGVPSQDKTRVEPPQYMIDLYNRYTSDKSTTPASNIVRSFSMEDAISITATEDFPFQKHILLFNISIPRHEQITRAELRLYVSCQNHVDPSHDLKGSVVIYDVLDGTDAWDSATETKTFLVSQDIQDEGWETLEVSSAVKRWVRSDSTKSKNKLEVTVESHRKGCDTLDISVPPGSRNLPFFVVFSNDHSSGTKETRLELREMISHEQESVLKKLSKDGSTEAGESSHEEDTDGHVAAGSTLAIEGRSSGAGSHCQKTSLRVNFEDIGWDSWIIAPKEYEAYECKGGCFFPLADDVTPTKHAIVQTLVHLKFPTKVGKACCVPTKLSPISVLYKDDMGVPTLKYHYEGMSVAECGCR
notes: Human proBMP9 residues 23-429; Behind the rat serum albumin signal peptide, the 8xHis tag and a factor Xa site (IEGR); Secreted unprocessed as a mixture of disulfide-linked dimers and monomers; also called Pro-BMP-9 with the furin site replaced by a factor X site; Pro-BMP-9 wild-type; source: expi293 (suspension HEK293), secreted; purified from conditioned medium by IMAC; not shown: 8xHis, …
B2: Pro-(X)-BMP-9 K357R (natural protein, human, UniProt Q9UK05 23-429, looked up)
chain: KPLQSWGRGSAGGNAHSPLGVPGGGLPEHTFNLKMFLENVKVDFLRSLNLSGVPSQDKTRVEPPQYMIDLYNRYTSDKSTTPASNIVRSFSMEDAISITATEDFPFQKHILLFNISIPRHEQITRAELRLYVSCQNHVDPSHDLKGSVVIYDVLDGTDAWDSATETKTFLVSQDIQDEGWETLEVSSAVKRWVRSDSTKSKNKLEVTVESHRKGCDTLDISVPPGSRNLPFFVVFSNDHSSGTKETRLELREMISHEQESVLKKLSKDGSTEAGESSHEEDTDGHVAAGSTLAIEGRSSGAGSHCQKTSLRVNFEDIGWDSWIIAPKEYEAYECRGGCFFPLADDVTPTKHAIVQTLVHLKFPTKVGKACCVPTKLSPISVLYKDDMGVPTLKYHYEGMSVAECGCR
notes: Human proBMP9 residues 23-429; mutant based on Pro-(X)-BMP-9; also called K357R BMP-9; source: expi293 (suspension HEK293), secreted; purified from conditioned medium by IMAC; not shown: 8xHis, N-terminal, kept
B3: BMP-9 G389S, K357R disulfide-linked dimer (ligand, human, UniProt Q9UK05 320-429, looked up)
chain: SSGAGSHCQKTSLRVNFEDIGWDSWIIAPKEYEAYECRGGCFFPLADDVTPTKHAIVQTLVHLKFPTKVSKACCVPTKLSPISVLYKDDMGVPTLKYHYEGMSVAECGCR
modifications: interchain disulfide Cys-392 to Cys-392'
notes: Human BMP-9 growth factor released by factor Xa from the G389S, K357R mutant of Pro-(X)-BMP-9 (proBMP9 residues 23-429, A321S, RRKR replaced by IEGR); also called BMP-9 double-mutant; BMP-9 G389S K357R Dimer; source: expi293 (suspension HEK293), secreted as Pro-(X)-BMP-9 mutant; IMAC, factor Xa digestion, C18 reverse phase
B4: BMP-9 G389S disulfide-linked dimer (ligand, human, UniProt Q9UK05 320-429, looked up)
chain: SSGAGSHCQKTSLRVNFEDIGWDSWIIAPKEYEAYECKGGCFFPLADDVTPTKHAIVQTLVHLKFPTKVSKACCVPTKLSPISVLYKDDMGVPTLKYHYEGMSVAECGCR
modifications: interchain disulfide Cys-392 to Cys-392'
notes: Human BMP-9 growth factor released by factor Xa from the G389S mutant of Pro-(X)-BMP-9 (proBMP9 residues 23-429, A321S, RRKR replaced by IEGR); also called BMP-9 G389S Dimer; source: expi293 (suspension HEK293), secreted as Pro-(X)-BMP-9 mutant; IMAC, factor Xa digestion, C18 reverse phase
B5: Pro-(X)-BMP-10, O95393 S385G; R353K (protein)
chain: SPIMNLEQSPLEEDMSLFGDVFSEQDGVDFNTLLQSMKDEFLKTLNLSDIPTQDSAKVDPPEYMLELYNKFATDRTSMPSANIIRSFKNEDLFSQPVSFNGLRKYPLLFNVSIPHHEEVIMAELRLYTLVQRDRMIYDGVDRKITIFEVLESKGDNEGERNMLVLVSGEIYGTNSEWETFDVTDAIRRWQKSGSSTHQLEVHIESKHDEAEDASSGRLEIDTSAQNKHNPLLIVFSDDQSSDKERKEELNEMISHEQLPELDNLGLDSFSSGPGEEALLQMRSNIIYDSTGIEGRNAKGNYCKRTPLYIDFKEIGWDSWIIAPPGYEAYECKGVCNYPLAEHLTPTKHAIIQALVHLKNSQKAGKACCVPTKLEPISILYLDKGVVTYKFKYEGMAVSECGCR
B6: Pro-(X)-BMP-10, O95393 S385G (protein)
chain: SPIMNLEQSPLEEDMSLFGDVFSEQDGVDFNTLLQSMKDEFLKTLNLSDIPTQDSAKVDPPEYMLELYNKFATDRTSMPSANIIRSFKNEDLFSQPVSFNGLRKYPLLFNVSIPHHEEVIMAELRLYTLVQRDRMIYDGVDRKITIFEVLESKGDNEGERNMLVLVSGEIYGTNSEWETFDVTDAIRRWQKSGSSTHQLEVHIESKHDEAEDASSGRLEIDTSAQNKHNPLLIVFSDDQSSDKERKEELNEMISHEQLPELDNLGLDSFSSGPGEEALLQMRSNIIYDSTGIEGRNAKGNYCKRTPLYIDFKEIGWDSWIIAPPGYEAYECRGVCNYPLAEHLTPTKHAIIQALVHLKNSQKAGKACCVPTKLEPISILYLDKGVVTYKFKYEGMAVSECGCR

The first data set concerns the molecule itself. Description: non-reducing SDS-PAGE with densitometry; IMAC-purified pro-proteins from expi293 conditioned medium, non-reduced against reduced; bands of disulfide-linked dimer and monomer.
Conditions: not given
For the molecule B1, the binding result was “binds”.

With B2, the binding result is “binds”.

The next data set concerns the molecule itself. Kind of data set: crystal structure; BMP-9 disulfide-linked dimers (wild type and mutants) at neutral pH; 1 M NaCl, glycerol, 0.1 M HEPES pH 7.4; multi-crystal data split into fractions.
Conditions: not given
On to B3, for which the binding result was “binds”.

Turning to B4, the binding result is “binds”.

The next data set deals with T1, Pro-(X)-BMP-10 S385G, R353K, O95393. Description: SDS-PAGE densitometry. As to conditions: chain shown with the change; IMAC column purified Pro-BMP-10.
Take B5: the other: disulfide-linked dimer over monomer ratio is 0.41.

In another data set the target is T2, Pro-(X)-BMP-10 S385G, O95393. Description: SDS-PAGE densitometry. As to conditions: chain shown with the change; IMAC column purified Pro-BMP-10.
As to B6, the other: disulfide-linked dimer over monomer ratio stood at 0.42.
